Reference: article PMC9927260

What follows are sequences tested on IBV H120 whole virus (target protein not identified) (Infectious bronchitis virus, live vaccine strain H120) (assay: direct ELAA).
With “CACGTCTCTCTATTCGCTCCCTTCGCTAATTGTTCTCTCC [Apt_IBV02]” the Kd was 58.2 nM.
“CCCCAATCACAGTTAATCCTCGTTCCTATATCTCCCACAC [Apt_IBV01]” gave a Kd of 99.2 nM.
With “CAGACTTTGTTCAGCTCCTCGACTCTTCATTCCCTCCCTT [Apt_IBV03]” the Kd was 109 nM.
For “GACTTCCCTCTTTGTGTGTCATTCGGTGTTCTCGCTTTTG [Apt_IBV05]”, the Kd was 59.4 nM.
Work on “CCAGTATCATCCCTATCGTAGTCCTCAACAACCCCCTACA [Apt_IBV04]” yielded a Kd of 99.9 nM.
